In paper PMC2852416, “Modular Insulators: Genome Wide Search for Composite CTCF/Thyroid Hormone Receptor Binding Sites”:

Tests used:
[1] = target: T1, GST-TR (TRbeta) (human, UniProt P10828 1-461); assay: EMSA; PBS pH 7.4, 5 mM MgCl2, 1 mM ZnCl2, 1 mM DTT, 0.1% NP-40, 10% glycerol, 200 ng/ul pdIdC, 25-100 ng/ul salmon sperm DNA, 20 min room temperature; 5% PAGE in TAE; details: protein: recombinant; tags: GST; label: 32P; blunt
T1 sequence: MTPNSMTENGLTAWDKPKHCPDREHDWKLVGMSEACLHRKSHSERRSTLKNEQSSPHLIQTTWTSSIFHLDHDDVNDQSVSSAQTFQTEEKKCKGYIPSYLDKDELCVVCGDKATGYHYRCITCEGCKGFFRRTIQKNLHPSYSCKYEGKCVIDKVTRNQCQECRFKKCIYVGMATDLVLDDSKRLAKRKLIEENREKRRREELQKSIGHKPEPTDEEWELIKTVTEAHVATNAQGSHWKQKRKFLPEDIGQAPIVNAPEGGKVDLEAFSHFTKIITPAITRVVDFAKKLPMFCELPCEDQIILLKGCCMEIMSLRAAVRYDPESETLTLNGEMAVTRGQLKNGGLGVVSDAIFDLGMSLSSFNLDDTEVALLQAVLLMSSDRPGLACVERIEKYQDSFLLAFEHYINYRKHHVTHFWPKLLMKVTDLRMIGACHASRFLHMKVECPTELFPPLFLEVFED

[2] = target: T1, GST-TR (TRbeta); assay: competition; 50-fold excess against COMT DR4 probe; PBS pH 7.4, 5 mM MgCl2, 1 mM ZnCl2, 1 mM DTT, 0.1% NP-40, 10% glycerol, 200 ng/ul pdIdC, 25-100 ng/ul salmon sperm DNA, 20 min room temperature; 5% PAGE in TAE; details: protein: recombinant; tags: GST; label: 32P; 5' overhangs 4 nt
[3] = target: T1, GST-TR (TRbeta); assay: competition; mutated F2 against COMT DR4 probe; PBS pH 7.4, 5 mM MgCl2, 1 mM ZnCl2, 1 mM DTT, 0.1% NP-40, 10% glycerol, 200 ng/ul pdIdC, 25-100 ng/ul salmon sperm DNA, 20 min room temperature; 5% PAGE in TAE; details: protein: recombinant; tags: GST; 5' overhangs 4 nt

B1: COMT DR4 (dsDNA)
DNA 1: ACCCGAGGGCACCAGAGGGCACGAGA
DNA 2: TCTCGTGCCCTCTGGTGCCCTCGGGT
B1: binds [1].

B2: F2 TRE (ER6) (dsDNA)
DNA 1: AGCTTTTAGTTACTTATTGACCCCAGCTGAGGTCAG
DNA 2: GATCCTGACCTCAGCTGGGGTCAATAAGTAACTAAA
B2: binds [2].

B3: F2mut TRE (dsDNA)
DNA 1: AGCTTTTAGTTACTTATTGGGTCCAGCTGATCCCAG
DNA 2: GATCCTGGGATCAGCTGGACCCAATAAGTAACTAAA
B3: no binding [3].
